Test results reported in publication PMC7641913.

Biological target: T1, His-Fur (Vibrio cholerae C7258 (El Tor; Peru, 1991)) (UniProt P0C6C8)
T1 sequence: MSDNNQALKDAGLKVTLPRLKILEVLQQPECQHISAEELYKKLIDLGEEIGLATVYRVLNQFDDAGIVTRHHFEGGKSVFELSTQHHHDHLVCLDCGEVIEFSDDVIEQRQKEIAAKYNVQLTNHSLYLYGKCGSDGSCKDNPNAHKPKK
Assay: EMSA
Conditions: 10 mM Tris-HCl pH 7.5, 50 mM KCl, 1 mM MgCl2, 100 uM MnCl (so in the source), 0.5 mM DTT, 0.05 mg/ml BSA, 10 mg/ml salmon sperm DNA; room temperature, 20 min (EMSA …)

**Q.** For “CACTTCTTCGCCTTCTTTGATTGCGCCAGTACGGCGAATATCCAAACGAACAGAAGCGTAGAATTTCAGTGCGTTACCGCCAGTGGTGGTTTCTGGGTTACCAAACATCACACCAATCTT (double strand) [recA fragment (negative control)]”, which binding is on record?
**A.** Its binding is “no binding”.
